In patent publication US20230407373A1 (priority 2020, published 2023):

B1: RBM15: host protein, UniProt Q96T37 (protein, UniProt Q96T37 1-977, looked up)
RNA-binding protein 15: MRTAGRDPVPRRSPRWRRAVPLCETSAGRRVTQLRGDDLRRPATMKGKERSPVKAKRSRGGEDSTSRGERSKKLGGSGGSNGSSSGKTDSGGGSRRSLHLDKSSSRGGSREYDTGGGSSSSRLHSYSSPSTKNSSGGGESRSSSRGGGGESRSSGAASSAPGGGDGAEYKTLKISELGSQLSDEAVEDGLFHEFKRFGDVSVKISHLSGSGSGDERVAFVNFRRPEDARAAKHARGRLVLYDRPLKIEAVYVSRRRSRSPLDKDTYPPSASVVGASVGGHRHPPGGGGGQRSLSPGGAALGYRDYRLQQLALGRLPPPPPPPLPRDLERERDYPFYERVRPAYSLEPRVGAGAGAAPFREVDEISPEDDQRANRTLFLGNLDITVTESDLRRAFDRFGVITEVDIKRPSRGQTSTYGFLKFENLDMSHRAKLAMSGKIIIRNPIKIGYGKATPTTRLWVGGLGPWVPLAALAREFDRFGTIRTIDYRKGDSWAYIQYESLDAAHAAWTHMRGFPLGGPDRRLRVDFADTEHRYQQQYLQPLPLTHYELVTDAFGHRAPDPLRGARDRTPPLLYRDRDRDLYPDSDWVPPPPPVRERSTRTAATSVPAYEPLDSLDRRRDGWSLDRDRGDRDLPSSRDQPRKRRLPEESGGRHLDRSPESDRPRKRHCAPSPDRSPELSSSRDRYNSDNDRSSRLLLERPSPIRDRRGSLEKSQGDKRDRKNSASAERDRKHRTTAPTEGKSPLKKEDRSDGSAPSTSTASSKLKSPSQKQDGGTAPVASASPKLCLAWQGMLLLKNSNFPSNMHLLQGDLQVASSLLVEGSTGGKVAQLKITQRLRLDQPKLDEVTRRIKVAGPNGYAILLAVPGSSDSRSSSSSAASDTATSTQRPLRNLVSYLKQKQAAGVISLPVGGNKDKENTGVLHAFPPCEFSQQFLDSPAKALAKSEEDYLVMIIVRGFGFQIGVRYENKKRENLALTLL
B2: ATXN2 ? (protein, UniProt Q99700 1-1313, looked up)
Ataxin-2: MRSAAAAPRSPAVATESRRFAAARWPGWRSLQRPARRSGRGGGGAAPGPYPSAAPPPPGPGPPPSRQSSPPSASDCFGSNGNGGGAFRPGSRRLLGLGGPPRPFVVLLLPLASPGAPPAAPTRASPLGARASPPRSGVSLARPAPGCPRPACEPVYGPLTMSLKPQQQQQQQQQQQQQQQQQQQQQQQPPPAAANVRKPGGSGLLASPAAAPSPSSSSVSSSSATAPSSVVAATSGGGRPGLGRGRNSNKGLPQSTISFDGIYANMRMVHILTSVVGSKCEVQVKNGGIYEGVFKTYSPKCDLVLDAAHEKSTESSSGPKREEIMESILFKCSDFVVVQFKDMDSSYAKRDAFTDSAISAKVNGEHKEKDLEPWDAGELTANEELEALENDVSNGWDPNDMFRYNEENYGVVSTYDSSLSSYTVPLERDNSEEFLKREARANQLAEEIESSAQYKARVALENDDRSEEEKYTAVQRNSSEREGHSINTRENKYIPPGQRNREVISWGSGRQNSPRMGQPGSGSMPSRSTSHTSDFNPNSGSDQRVVNGGVPWPSPCPSPSSRPPSRYQSGPNSLPPRAATPTRPPSRPPSRPSRPPSHPSAHGSPAPVSTMPKRMSSEGPPRMSPKAQRHPRNHRVSAGRGSISSGLEFVSHNPPSEAATPPVARTSPSGGTWSSVVSGVPRLSPKTHRPRSPRQNSIGNTPSGPVLASPQAGIIPTEAVAMPIPAASPTPASPASNRAVTPSSEAKDSRLQDQRQNSPAGNKENIKPNETSPSFSKAENKGISPVVSEHRKQIDDLKKFKNDFRLQPSSTSESMDQLLNKNREGEKSRDLIKDKIEPSAKDSFIENSSSNCTSGSSKPNSPSISPSILSNTEHKRGPEVTSQGVQTSSPACKQEKDDKEEKKDAAEQVRKSTLNPNAKEFNPRSFSQPKPSTTPTSPRPQAQPSPSMVGHQQPTPVYTQPVCFAPNMMYPVPVSPGVQPLYPIPMTPMPVNQAKTYRAVPNMPQQRQDQHHQSAMMHPASAAGPPIAATPPAYSTQYVAYSPQQFPNQPLVQHVPHYQSQHPHVYSPVIQGNARMMAPPTHAQPGLVSSSATQYGAHEQTHAMYACPKLPYNKETSPSFYFAISTGSLAQQYAHPNATLHPHTPHPQPSATPTGQQQSQHGGSHPAPSPVQHHQHQAAQALHLASPQQQSAIYHAGLAPTPPSMTPASNTQSPQNSFPAAQQTVFTIHPSHVQPAYTNPPHMAHVPQAHVQSGMVPSHPTAHAPMMLMTTQPPGGPQAALAQSALQPIPVSTTAHFPYMTHPSVQAHHQQQL
B3: SNW1 (protein, UniProt Q13573 2-536, looked up)
SNW domain-containing protein …: ALTSFLPAPTQLSQDQLEAEEKARSQRSRQTSLVSSRREPPPYGYRKGWIPRLLEDFGDGGAFPEIHVAQYPLDMGRKKKMSNALAIQVDSEGKIKYDAIARQGQSKDKVIYSKYTDLVPKEVMNADDPDLQRPDEEAIKEITEKTRVALEKSVSQKVAAAMPVRAADKLAPAQYIRYTPSQQGVAFNSGAKQRVIRMVEMQKDPMEPPRFKINKKIPRGPPSPPAPVMHSPSRKMTVKEQQEWKIPPCISNWKNAKGYTIPLDKRLAADGRGLQTVHINENFAKLAEALYIADRKAREAVEMRAQVERKMAQKEKEKHEEKLREMAQKARERRAGIKTHVEKEDGEARERDEIRHDRRKERQHDRNLSRAAPDKRSKLQRNENRDISEVIALGVPNPRTSNEVQYDQRLFNQSKGMDSGFAGGEDEIYNVYDQAWRGGKDMAQSIYRPSKNLDKDMYGDDLEARIKTNRFVPDKEFSGSDRRQRGREGPVQFEEDPFGLDKFLEEAKQHGGSKRPSDSSRPKEHEHEGKKRRKE
B4: RIAS: host protein, UniProt P31483 (protein, UniProt P31483 1-386, looked up)
Cytotoxic granule associated …: MEDEMPKTLYVGNLSRDVTEALILQLFSQIGPCKNCKMIMDTAGNDPYCFVEFHEHRHAAAALAAMNGRKIMGKEVKVNWATTPSSQKKDTSSSTVVSTQRSQDHFHVFVGDLSPEITTEDIKAAFAPFGRISDARVVKDMATGKSKGYGFVSFFNKWDAENAIQQMGGQWLGGRQIRTNWATRKPPAPKSTYESNTKQLSYDEVVNQSSPSNCTVYCGGVTSGLTEQLMRQTFSPFGQIMEIRVFPDKGYSFVRFNSHESAAHAIVSVNGTTIEGHVVKCYWGKETLDMINPVQQQNQIGYPQPYGQWGQWYGNAQQIGQYMPNGWQVPAYGMYGQAWNQQGFNQTQSSAPWMGPNYGVQPPQGQNGSMLPNQPSGYRVAGYETQ
B5: TECR: host protein, UniProt Q9NZ01 (protein, UniProt Q9NZ01 1-308, looked up)
Very-long-chain enoyl-CoA …: MKHYEVEILDAKTREKLCFLDKVEPHATIAEIKNLFTKTHPQWYPARQSLRLDPKGKSLKDEDVLQKLPVGTTATLYFRDLGAQISWVTVFLTEYAGPLFIYLLFYFRVPFIYGHKYDFTSSRHTVVHLACICHSFHYIKRLLETLFVHRFSHGTMPLRNIFKNCTYYWGFAAWMAYYINHPLYTPPTYGAQQVKLALAIFVICQLGNFSIHMALRDLRPAGSKTRKIPYPTKNPFTWLFLLVSCPNYTYEVGSWIGFAIMTQCLPVALFSLVGFTQMTIWAKGKHRSYLKEFRDYPPLRMPIIPFLL
B6: HNRNPAO: host protein, UniProt Q13151 (protein, UniProt Q13151 1-305, looked up)
Heterogeneous nuclear …: MENSQLCKLFIGGLNVQTSESGLRGHFEAFGTLTDCVVVVNPQTKRSRCFGFVTYSNVEEADAAMAASPHAVDGNTVELKRAVSREDSARPGAHAKVKKLFVGGLKGDVAEGDLIEHFSQFGTVEKAEIIADKQSGKKRGFGFVYFQNHDAADKAAVVKFHPIQGHRVEVKKAVPKEDIYSGGGGGGSRSSRGGRGGRGRGGGRDQNGLSKGGGGGYNSYGGYGGGGGGGYNAYGGGGGGSSYGGSDYGNGFGGFGSYSQHQSSYGPMKSGGGGGGGGSSWGGRSNSGPYRGGYGGGGGYGGSSF
B7: MSN (protein, UniProt P26038 2-577, looked up)
Moesin: PKTISVRVTTMDAELEFAIQPNTTGKQLFDQVVKTIGLREVWFFGLQYQDTKGFSTWLKLNKKVTAQDVRKESPLLFKFRAKFYPEDVSEELIQDITQRLFFLQVKEGILNDDIYCPPETAVLLASYAVQSKYGDFNKEVHKSGYLAGDKLLPQRVLEQHKLNKDQWEERIQVWHEEHRGMLREDAVLEYLKIAQDLEMYGVNYFSIKNKKGSELWLGVDALGLNIYEQNDRLTPKIGFPWSEIRNISFNDKKFVIKPIDKKAPDFVFYAPRLRINKRILALCMGNHELYMRRRKPDTIEVQQMKAQAREEKHQKQMERAMLENEKKKREMAEKEKEKIEREKEELMERLKQIEEQTKKAQQELEEQTRRALELEQERKRAQSEAEKLAKERQEAEEAKEALLQASRDQKKTQEQLALEMAELTARISQLEMARQKKESEAVEWQQKAQMVQEDLEKTRAELKTAMSTPHVAEPAENEQDEQDENGAEASADLRADAMAKDRSEEERTTEAEKNERVQKHLKALTSELANARDESKKTANDMIHAENMRLGRDKYKTLRQIRQGNTKQRIDEFESM

Key:
gRNA of HCoV-OC43 = format: binding; conditions: for target (spectral count) / background (spectral count): type g_36_m, 36 hpi, Probe I; for target (spectral count): HCoV-OC43-infected HCT-8 cells; for background (spectral count): uninfected-probe control; for target (spectral count, OC43 Probe I RNP capture) / background (spectral count, no-probe control): type n_48_v: 48 hours post-infection; for target (spectral count, OC43 Probe I RNP capture): infected cells, unweighted spectral count; for background (spectral count, no-probe control): no-probe control on infected cells
HCoV-OC43 gRNA and sgRNA = format: binding

Row | Molecule | target (spectral count) (gRNA of HCoV-OC43) | background (spectral count) (gRNA of HCoV-OC43) | target (spectral count, OC43 Probe I RNP capture) (gRNA of HCoV-OC43) | background (spectral count, no-probe control) (gRNA of HCoV-OC43) | target (unweighted spectral count, OC43 Probe II capture) (HCoV-OC43 gRNA and sgRNA; 24 hpi, type n_24_v, tested against no-probe control, FDR<10%) | target (unweighted spectral count, OC43 Probe II) (HCoV-OC43 gRNA and sgRNA; type n_48_v, 48 hpi, OC43 Probe II capture on infected cells) | background (unweighted spectral count, no-probe control) (HCoV-OC43 gRNA and sgRNA; type n_48_v, 48 hpi, no-probe control on infected cells)
1 | B1 | 9 | 1 | 14 | 1 | 5 | 11 | 1
2 | B2 |  |  | 12 | 1 |  |  | 
3 | B3 |  |  | 5 | 1 |  |  | 
4 | B4 | 10 | 1 |  |  |  |  | 
5 | B5 | 9 | 1 |  |  |  |  | 
6 | B6 | 15 | 2 |  |  |  |  | 
7 | B7 |  |  | 5 | 1 |  |  | 
